In patent US20100075374A1, “Methods for capturing nascent proteins” (AMBERGEN, INC., priority 2007, published 2010):

Assays:
PKCα = target: T1, PKCα (Homo sapiens, UniProt P17252); assay: PMA mediated PKCα sub-cellular translocation measured by kinase activity after photocleavable antibody isolation; type: cell-based; details: HeLa cells, 200 nM PMA for 5 min, n=4
T1 construct: isolate and photo-release endogenous PKCa from the undiluted detergent fractionated HeLa cell extracts; endogenous in cells; host or cells: HeLa cells (ATCC)
Protocol: Cultured HeLa cells (ATCC; Manassas, Va.) were stimulated for 5 min with 200 nM Phorbol-12-Myristate-13-Acetate (PMA; EMD Biosciences, Inc., San Diego, Calif.) and subsequently detergent fractionated into sub-cellular compartments according to reported procedures [Ramsby et al. (1994) Electrophoresis 15, 265-277; Ramsby & Makowski. (1999) Methods Mol Biol 112, 53-66; Chiang et al. (2000) J Biochem Biophys Methods 46, 53-68]. PMA is a potent activator of PKCα and is well known to cause translocation of the kinase from the cytosolic to the membrane sub-cellular compartments [Ross & Joyner. (1997) Endothelium 5, 321-332; Bazan & Rapoport. (1996) JPharmacol Toxicol Methods 36, 87-95; Yazlovitskaya & Melnykovych. (1995) Cancer Lett 88, 179-183].
A photocleavable antibody conjugated solid affinity matrix was prepared and used to isolate and photo-release the antigen into solution essentially as described in Example 2 except that in this case, a photocleavable anti-IgG secondary antibody was used to immobilize the unlabeled primary antibody onto the solid affinity matrix. This antibody affinity matrix was used to isolate and photo-release endogenous PKCa from the undiluted detergent fractionated HeLa cell extracts. […]

[1] = target: T2, human recombinant ZAP-70 tyrosine kinase (Homo sapiens, UniProt P43403); assay: kinase substrate profiling on photo-transferred proteins, phosphotyrosine detection; type: biochemical; details: plus ATP kinase reaction, 30 min at 37° C.
T2 construct: purchased Invitrogen Corporation
T2 sequence (P43403 1-619): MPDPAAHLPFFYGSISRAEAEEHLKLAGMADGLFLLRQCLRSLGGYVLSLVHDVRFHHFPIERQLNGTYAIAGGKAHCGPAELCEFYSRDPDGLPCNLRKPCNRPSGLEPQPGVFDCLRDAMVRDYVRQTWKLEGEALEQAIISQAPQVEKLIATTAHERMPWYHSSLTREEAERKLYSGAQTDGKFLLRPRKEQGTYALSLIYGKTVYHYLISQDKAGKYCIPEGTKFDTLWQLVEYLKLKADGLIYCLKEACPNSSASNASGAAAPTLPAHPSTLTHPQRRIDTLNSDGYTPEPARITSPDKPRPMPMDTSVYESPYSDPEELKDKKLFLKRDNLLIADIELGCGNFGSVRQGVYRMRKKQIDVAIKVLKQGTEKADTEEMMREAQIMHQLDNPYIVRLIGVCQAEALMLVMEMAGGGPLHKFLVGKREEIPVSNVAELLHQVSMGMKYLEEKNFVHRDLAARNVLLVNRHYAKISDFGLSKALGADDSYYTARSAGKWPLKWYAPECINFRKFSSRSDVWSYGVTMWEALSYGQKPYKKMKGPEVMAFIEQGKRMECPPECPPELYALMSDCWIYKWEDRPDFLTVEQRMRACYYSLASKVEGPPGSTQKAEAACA

[2] = target: T3, human recombinant Src pp^60 tyrosine kinase (Homo sapiens, UniProt P12931); assay: as above; type: biochemical; details: plus ATP kinase reaction, 30 min at 37° C.
T3 construct: purchased Invitrogen Corporation

MDM2 bait = target: T4, MDM2 bait (Homo sapiens, UniProt Q00987); assay: p53-MDM interaction assay, pre-formed complexes of cell-free expressed proteins, contact photo-transfer; type: binding; details: complexes formed before contact photo-transfer
T4 construct: made in house; host or cells: rabbit reticulocyte lysate, coupled cell-free transcription/translation
Protocol: BODIPY-FL-tRNA^COMPLETE was used for fluorescence labeling (at 2 μM) instead of BODIPY-FL-tRNA^Lys. The cell-free expressed p53 “probe” was labeled only with BODIPY-FL using the BODIPY-FL-tRNA^COMPLETE and was not labeled with PC-biotin in any way. […] The “bait” proteins were labeled only with PC-Biotin-tRNA^COMPLETE (at 1 μM) and not with BODIPY-FL in any way. The Translation Dilution Buffer (TDB) used to stop the reaction and prepare the sample contained no BSA or other protein carrier, 10 mM DTT instead of 2 mM and additionally contained 20 mM EDTA added from a 500 mM pH 8.0 stock and 4 mM cycloheximide (Sigma-Aldrich, St. Louis, Mo.) added from a 355 mM stock in DMSO.
All steps were performed at +4° C. or on an ice water bath and all reagents and samples were also kept under these conditions during the procedure. […] To facilitate addition of small bead volumes to the samples, the beads were initially prepared to a 10% (v/v) bead suspension with 5 mM DTT in PBS. The samples, now 80 μL each, were then mixed with 10 μL of the 10% (v/v) bead suspension corresponding to addition of 1 μL packed bead volume. After capture on the NeutrAvidin beads for 1 hr, beads were washed by mixing 3× briefly (briefly=5 sec vortex mix) in 400 bead volumes per wash of PBS pH 7.5 and 5 mM DTT. […]

T4 sequence (Q00987 whole entry): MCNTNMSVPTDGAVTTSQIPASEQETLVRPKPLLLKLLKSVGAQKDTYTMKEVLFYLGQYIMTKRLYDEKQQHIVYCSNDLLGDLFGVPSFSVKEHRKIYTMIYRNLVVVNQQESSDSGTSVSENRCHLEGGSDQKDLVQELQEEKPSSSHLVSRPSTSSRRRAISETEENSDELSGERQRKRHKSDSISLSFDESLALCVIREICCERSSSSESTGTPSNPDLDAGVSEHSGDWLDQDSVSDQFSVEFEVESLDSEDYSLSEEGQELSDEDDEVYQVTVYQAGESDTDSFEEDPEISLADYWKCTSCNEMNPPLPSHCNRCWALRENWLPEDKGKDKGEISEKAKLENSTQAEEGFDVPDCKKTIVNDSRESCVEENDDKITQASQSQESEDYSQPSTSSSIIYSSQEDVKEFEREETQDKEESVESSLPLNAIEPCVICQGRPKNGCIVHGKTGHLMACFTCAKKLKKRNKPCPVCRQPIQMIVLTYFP

Compound: CCCCCCCCCCCCCC(=O)O[C@@H]1[C@@H](C)[C@@]2(O)[C@@H](C=C(CO)C[C@]3(O)C(=O)C(C)=C[C@@H]23)[C@@H]2C(C)(C)[C@]12OC(C)=O [PMA, Phorbol-12-Myristate-13-Acetate]
- PKCα distribution, membrane, based on kinase activity (PKCα; baseline 21±2% membrane): 84±3%
- PKCα distribution, cytosol, based on kinase activity (PKCα; baseline 79±7% cytosol): 16±4%

Compound: CK: cell-free expressed human casein kinase II, contact photo-transferred to microarray
- phosphorylation by ZAP-70 [1]: does not phosphorylate
- phosphorylation by Src pp^60 [2]: significant phosphorylation

Compound: p53 “probe”: cell-free expressed human p53 labeled only with BODIPY-FL using BODIPY-FL-tRNA COMPLETE
- binding of cell-free expressed p53 probe to MDM bait (MDM2 bait): selective binding
